Results reported in publication PMC10117100.

How the values were obtained:
Gluc1-ΔNp73α FL (human) = Gluc1-ΔNp73α FL (human) (UniProt O15350); assay: split reporter (BiFC, NanoBiT); Gaussia princeps protein complementation assay (GPCA): Gluc1 and Gluc2 N-terminal fusions co-transfected in HEK293T, luminescence of lysates after 48 h as normalized luminescence ratio (NLR); pairs count as interacting if NLR is above 5
[1] = biological target: Gluc1-ΔN(1 to 433) (human); assay: as above
Sequence of Gluc1-ΔN(1 to 433) (human) (O15350 other isoform, or with tags, fused parts or gaps mutant): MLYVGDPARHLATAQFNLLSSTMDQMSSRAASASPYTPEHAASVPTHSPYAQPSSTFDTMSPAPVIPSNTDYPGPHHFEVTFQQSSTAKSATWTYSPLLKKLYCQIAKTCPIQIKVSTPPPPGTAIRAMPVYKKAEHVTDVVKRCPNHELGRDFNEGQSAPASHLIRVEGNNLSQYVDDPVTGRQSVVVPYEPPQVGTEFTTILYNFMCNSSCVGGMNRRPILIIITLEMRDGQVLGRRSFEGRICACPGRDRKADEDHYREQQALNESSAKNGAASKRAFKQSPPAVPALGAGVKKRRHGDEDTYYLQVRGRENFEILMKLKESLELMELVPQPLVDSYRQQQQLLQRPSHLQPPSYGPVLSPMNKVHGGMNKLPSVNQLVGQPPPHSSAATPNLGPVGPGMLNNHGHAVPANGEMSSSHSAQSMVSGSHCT

Sequence of Gluc2-E2F4 FL (Q16254 whole entry): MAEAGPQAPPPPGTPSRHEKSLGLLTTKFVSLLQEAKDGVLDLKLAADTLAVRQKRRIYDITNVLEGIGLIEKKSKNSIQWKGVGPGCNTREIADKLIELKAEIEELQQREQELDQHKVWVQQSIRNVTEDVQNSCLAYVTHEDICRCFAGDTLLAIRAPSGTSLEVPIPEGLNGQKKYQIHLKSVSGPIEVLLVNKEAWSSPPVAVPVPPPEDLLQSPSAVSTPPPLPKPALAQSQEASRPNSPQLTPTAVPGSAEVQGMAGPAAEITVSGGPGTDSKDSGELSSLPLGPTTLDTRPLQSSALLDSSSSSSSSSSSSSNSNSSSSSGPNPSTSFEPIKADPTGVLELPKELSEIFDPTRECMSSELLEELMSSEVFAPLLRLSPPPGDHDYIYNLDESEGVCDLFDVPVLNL
Sequence of Gluc1-ΔNp73α FL (human) (O15350 other isoform, or with tags, fused parts or gaps mutant): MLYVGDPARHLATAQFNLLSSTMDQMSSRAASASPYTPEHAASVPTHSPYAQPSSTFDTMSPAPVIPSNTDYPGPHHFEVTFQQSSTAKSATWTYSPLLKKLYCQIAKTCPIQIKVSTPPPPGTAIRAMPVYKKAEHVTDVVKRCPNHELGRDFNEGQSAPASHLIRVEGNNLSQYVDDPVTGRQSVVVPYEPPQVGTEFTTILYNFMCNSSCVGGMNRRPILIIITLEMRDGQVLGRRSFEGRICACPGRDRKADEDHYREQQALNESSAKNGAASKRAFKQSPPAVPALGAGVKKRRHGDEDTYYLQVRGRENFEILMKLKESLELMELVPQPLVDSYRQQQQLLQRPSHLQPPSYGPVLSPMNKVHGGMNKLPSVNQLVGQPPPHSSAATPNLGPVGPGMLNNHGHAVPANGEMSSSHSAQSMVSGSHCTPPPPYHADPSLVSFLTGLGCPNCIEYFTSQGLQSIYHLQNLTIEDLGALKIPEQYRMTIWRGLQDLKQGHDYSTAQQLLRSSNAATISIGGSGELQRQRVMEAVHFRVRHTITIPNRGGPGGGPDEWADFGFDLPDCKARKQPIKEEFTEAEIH
Sequence of Gluc2-E2F(1 to 336) (Q16254 1-336): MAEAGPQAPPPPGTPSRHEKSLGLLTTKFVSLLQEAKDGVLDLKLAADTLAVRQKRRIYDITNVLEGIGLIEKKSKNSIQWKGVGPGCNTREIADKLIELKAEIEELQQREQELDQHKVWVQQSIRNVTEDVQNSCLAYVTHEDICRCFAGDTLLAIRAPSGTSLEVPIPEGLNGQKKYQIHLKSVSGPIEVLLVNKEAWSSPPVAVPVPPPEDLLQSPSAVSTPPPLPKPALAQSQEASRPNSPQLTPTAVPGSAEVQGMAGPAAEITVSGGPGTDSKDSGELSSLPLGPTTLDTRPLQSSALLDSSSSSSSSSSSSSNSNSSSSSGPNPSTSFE

In the case of “Gluc2-E2F(1 to 336) (from UniProt Q16254 1-336) (domain or fragment)”, the NLR normalized to the ΔNp73α-E2F4 FL interaction (Gluc1-ΔNp73α FL (human)) is reported as 60%.
“Gluc2-E2F4 FL (from UniProt Q16254 1-413) (natural protein)” gave a normalized luminescence ratio (NLR) [1] of over 20.
